Fewer inactive variants are shown than the library holds.
Tests used:
biotinyl-Phe-oxazolone = assay: self-aminoacylation, catalytic enhancement (BFO) (fold over background); higher = more active; k-Seq, kA / k0A0; sequences stand for … in GGGAAUGGAUCCACAUCUACGAAUUC…UUCACUGCAGACUUGACGAAGCUG
In short: (§1)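 Mutagenized RNA pools with a 21-nt variable region (0.43 μM) reacted with each biotinyl-aminoacyl-oxazolone at 2–1250 μM. Reactions ran in 50 μL HEPES/NaCl/KCl/MgCl2/CaCl2 buffer with 5% acetonitrile, pH 6.9–7.0, for 90 minutes at room temperature. Streptavidin-captured RNA was quantified by triplicate qPCR and Illumina sequencing, and per-sequence fraction reacted was fit to a pseudo-first-order model with 1000 bootstraps. Catalytic enhancement is median kA divided by the uncatalyzed rate, the low-activity peak of a bimodal Gaussian fit.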

biotinyl-Ile-oxazolone = assay: self-aminoacylation, catalytic enhancement (BIO) (fold over background); higher = more active; k-Seq, kA / k0A0; sequences stand for … in GGGAAUGGAUCCACAUCUACGAAUUC…UUCACUGCAGACUUGACGAAGCUG
In short: as §1

biotinyl-Met-oxazolone = assay: self-aminoacylation, catalytic enhancement (BMO) (fold over background); higher = more active; k-Seq, kA / k0A0; sequences stand for … in GGGAAUGGAUCCACAUCUACGAAUUC…UUCACUGCAGACUUGACGAAGCUG
In short: as §1

biotinyl-Val-oxazolone = assay: self-aminoacylation, catalytic enhancement (BVO) (fold over background); higher = more active; k-Seq, kA / k0A0; sequences stand for … in GGGAAUGGAUCCACAUCUACGAAUUC…UUCACUGCAGACUUGACGAAGCUG
In short: as §1

biotinyl-Leu-oxazolone = assay: self-aminoacylation, catalytic enhancement (BLO) (fold over background); higher = more active; k-Seq, kA / k0A0; sequences stand for … in GGGAAUGGAUCCACAUCUACGAAUUC…UUCACUGCAGACUUGACGAAGCUG
In short: as §1

biotinyl-Trp-oxazolone = assay: self-aminoacylation, catalytic enhancement (BWO) (fold over background); higher = more active; k-Seq, kA / k0A0; sequences stand for … in GGGAAUGGAUCCACAUCUACGAAUUC…UUCACUGCAGACUUGACGAAGCUG
In short: as §1

Row | Sequence | self-aminoacylation (biotinyl-Phe-oxazolone) | self-aminoacylation (biotinyl-Ile-oxazolone) | self-aminoacylation (biotinyl-Met-oxazolone) | self-aminoacylation (biotinyl-Val-oxazolone) | self-aminoacylation (biotinyl-Leu-oxazolone) | self-aminoacylation (biotinyl-Trp-oxazolone)
1 | AAGUUUGCUAUCAGUCGCAAG [Fam3.1 aminoacylation ribozyme variant] | 1.37 | 0.794 | 0.865 | 0.931 | 0.733 | 0.615
2 | AAGUUUGCUAUUAGACGCAAG [Fam3.1 aminoacylation ribozyme variant] | 1.08 | 0.577 | 0.712 | 0.894 | 0.691 | 0.55
3 | AAGUUUGCUAUUAGUCGAAAG [Fam3.1 aminoacylation ribozyme variant] | 1.06 | 1.07 | 1.18 | 0.834 | 0.914 | 0.825
4 | AAGUUUGCUAUUAGUCGUAAG [Fam3.1 aminoacylation ribozyme variant] | 0.987 | 0.868 | 0.884 | 0.923 | 0.851 | 1.13
5 | AAGUUUGCUCAUAGGCGCAAG [Fam3.1 aminoacylation ribozyme variant] | 0.996 | 0.735 | 0.839 | 0.852 | 0.577 | 0.876
6 | AAGUUUGCUCAUAGUGGCAAG [Fam3.1 aminoacylation ribozyme variant] | 1.2 | 0.71 | 0.618 | 0.774 | 0.526 | 0.785
7 | AAGUUUGCUGAGAGUCGCAAG [Fam3.1 aminoacylation ribozyme variant] | 1.91 | 0.969 | 1.01 | 0.873 | 1.03 | 1.18
8 | AAGUUUGCUGAUAAUCGCAAG [Fam3.1 aminoacylation ribozyme variant] | 1.05 | 0.707 | 0.716 | 0.754 | 0.586 | 0.682
9 | AAGUUUGCUGAUAGUCGCAAA [Fam3.1 aminoacylation ribozyme variant] | 3.33 | 1.71 | 1.38 | 1.55 | 1.6 | 1.19
10 | AAGUUUGCUGAUAGUCGCGAG [Fam3.1 aminoacylation ribozyme variant] | 6.95 | 1.75 | 1.72 | 1.61 | 2.43 | 1.81
11 | AAGUUUGCUGAUAGUCGCUAG [Fam3.1 aminoacylation ribozyme variant] | 1.86 | 1.14 | 1.31 | 1.26 | 1.08 | 1.11
12 | AAGUUUGCUGCUAGUCGCAAG [Fam3.1 aminoacylation ribozyme variant] | 2.64 | 1.21 | 1.57 | 1.31 | 1.3 | 1.19
13 | AAGUUUGCUGUUAGUCGCAAG [Fam3.1 aminoacylation ribozyme variant] | 0.937 | 0.911 | 0.895 | 0.855 | 0.912 | 1.37
14 | AAGUUUGCUUAUACUCGCAAG [Fam3.1 aminoacylation ribozyme variant] | 0.761 | 0.779 | 0.863 | 0.814 | 0.66 | 0.554
15 | AAGUUUGCUUAUAGACGCAAG [Fam3.1 aminoacylation ribozyme variant] | 0.84 | 0.591 | 0.559 | 0.585 | 0.495 | 0.629
16 | AAGUUUGCUUAUAGUAGCAAG [Fam3.1 aminoacylation ribozyme variant] | 1.56 | 1.04 | 1.06 | 1.12 | 1.08 | 0.878
17 | AAGUUUGCUUAUAGUCGCAAG [Fam3.1 aminoacylation ribozyme variant] | 1.13 | 0.849 | 0.801 | 0.862 | 0.768 | 0.847
18 | AAGUUUGCUUAUAGUCGCAAU [Fam3.1 aminoacylation ribozyme variant] | 1.74 | 1.1 | 1.41 | 1.22 | 1.27 | 1.03
19 | AAGUUUGCUUAUUGUCGCAAG [Fam3.1 aminoacylation ribozyme variant] | 0.903 | 0.771 | 0.641 | 0.713 | 0.686 | 0.97
20 | AAGUUUGGUAACAGUCGCAAG [Fam3.1 aminoacylation ribozyme variant] | 1.24 | 1.07 | 0.994 | 0.987 | 0.857 | 0.693
21 | AAGUUUGGUAAUAGCCGCAAG [Fam3.1 aminoacylation ribozyme variant] | 1.19 | 1.27 | 1.39 | 1.01 | 1.15 | 1.42
22 | AAGUUUGGUAAUAGUCGCAAU [Fam3.1 aminoacylation ribozyme variant] | 3.13 | 2.02 | 1.65 | 1.62 | 1.8 | 2.14
23 | AAGUUUGGUAAUCGUCGCAAG [Fam3.1 aminoacylation ribozyme variant] | 1.07 | 1.39 | 1.49 | 1.32 | 1.33 | 1.52
24 | AAGUUUGGUAUUAGUCGCAAG [Fam3.1 aminoacylation ribozyme variant] | 2.44 | 1.65 | 1.51 | 1.47 | 1.5 | 1.74
25 | AAGUUUGUUAACAGUCGCAAG [Fam3.1 aminoacylation ribozyme variant] | 1.11 | 1.09 | 0.806 | 0.996 | 1.03 | 0.988
26 | AAGUUUGUUAAUAGACGCAAG [Fam3.1 aminoacylation ribozyme variant] | 0.803 | 0.583 | 0.587 | 0.536 | 0.399 | 0.609
